The test system of the series is ATP. Kind of series: switch fluorescence ratio, 500 uM ATP over buffer (Cy3 cluster intensity, sum of 5 cycles each) (fold (ratio)); higher = stronger signal-on switching upon ATP binding; sequences stand for … in TCGTCGGCAGCGTCAGATGTGTATAAGAGACAGTTTTTTTTTTTTTTTTTTTTTTTTT…TC. The conditions noted are these: aptamer strand: ATP DNA aptamer (quencher-CACCTGGGGGAGTATTGCGGAGGAAGG + anchor), 100 nM annealed; ATP concentration: 500 uM. An outline of the steps:
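For every switch-domain sequence, the fluorescence ratio is the mean of per-cluster values, each being summed target-cycle Cy3 intensity over summed buffer-cycle Cy3 intensity. Clusters outside 100-1000 RFU were excluded. On a modified Illumina MiSeq flow-cell, the Cy3-labelled switching-strand clusters were annealed to 100 nM quencher-labelled ATP aptamer, imaged in selection buffer and then after 15 min with 500 uM ATP at 22 °C. Five such cycles were run, with NaOH stripping and re-annealing between them.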

± gives the standard deviation of the averaged measurements.
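Further: ATP exposure 15 min at 22 °C before imaging.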

For TCTTTGGGAC, the switch fluorescence ratio amounted to 0.994 ± 0.028. Under TCTTTTGGGG stands 1.03 ± 0.024. Under TCTTTTTTAG stands 0.998 ± 0.036; under TCTTTTTTTA, 1.02 ± 0.06.

On to TCTTTTTTTT, for which the switch fluorescence ratio amounted to 1 ± 0.041. On to TGAAAACACG, for which the switch fluorescence ratio worked out at 1.17 ± 0.22. With TGAAAATCGG the figure was 0.965 ± 0.02. Take TGAAACCACT: the switch fluorescence ratio is 1.1 ± 0.013. Consider TGAAACGCTG, for which the switch fluorescence ratio was determined as 1.06 ± 0.04. For the sequence TGAAAGCCGG, the switch fluorescence ratio turned out to be 0.965 ± 0.045. Under TGAAAGCGCC stands 1.07 ± 0.03; under TGAAAGTGGA, 1.05 ± 0.034; under TGAAATAGGT, 0.99 ± 0.036.

As for TGAAATATGT, the switch fluorescence ratio came to 0.987 ± 0.04. As for TGAAATTTTA, the switch fluorescence ratio was found to be 0.9926 ± 0.006. Under TGAAATTTTT stands 0.982 ± 0.029; under TGAACGACGG, 1.02 ± 0.073. With TGAACGGGCC, the switch fluorescence ratio worked out at 1.036 ± 0.00055.

Turning to TGAACTGTTC, the switch fluorescence ratio amounted to 1.04 ± 0.069. Under TGAAGACTGA stands 1 ± 0.012. With TGAAGATAAC the figure was 1.02 ± 0.026; with TGAAGCCAGT, 1 ± 0.024; with TGAAGGACGT, 0.996 ± 0.019. For TGAAGGAGGG, the switch fluorescence ratio was 1.02 ± 0.06. With TGAAGGCCGG the figure was 0.995 ± 0.033. As for TGAAGGCGGG, the switch fluorescence ratio is 1 ± 0.039. With TGAAGGGGGC the figure was 0.994 ± 0.045; with TGAAGGGGGT, 0.999 ± 0.032; with TGAAGGGTCA, 0.968 ± 0.022. Under TGAAGGTACA stands 1.034 ± 0.0031; under TGAAGGTTAC, 1.02 ± 0.012.

For TGAAGTAACA, the switch fluorescence ratio was found to be 1.06 ± 0.038. With TGAAGTAAGC the figure was 1.09 ± 0.12; with TGAAGTAATC, 1.42 ± 0.43. With TGAAGTATGG the figure was 0.9517 ± 0.0024; with TGAAGTCCTT, 1.005 ± 0.0037. Take TGAAGTGTTG: the switch fluorescence ratio is 0.99 ± 0.019. Under TGAATAAGAG stands 1.01 ± 0.026; under TGAATATTGT, 1.04 ± 0.051. Under TGAATCTAGA stands 1.01 ± 0.019. With TGAATGATGG the figure was 1.02 ± 0.015. As to TGAATGTGGT, the switch fluorescence ratio was found to be 0.97 ± 0.014.

Take TGAATTATGT: the switch fluorescence ratio amounted to 0.985 ± 0.048. With TGAATTCTTT the figure was 0.968 ± 0.041. Regarding TGAATTTAT, the switch fluorescence ratio was determined as 0.998 ± 0.012. As for TGACAAAG, the switch fluorescence ratio amounted to 0.9776 ± 0.0029.

Regarding TGACAAAGA, the switch fluorescence ratio was 1 ± 0.022. Under TGACAATGTT stands 0.994 ± 0.052; under TGACACTTAA, 1.07 ± 0.096. With TGACAGGATT the figure was 0.9946 ± 0.0083. With TGACAGGGCT the figure was 1.01 ± 0.011; with TGACCGCCGT, 1.06 ± 0.035.

For the sequence TGACGAAGCG, the switch fluorescence ratio was 1.05 ± 0.035. Under TGACGAGCTG stands 1.03 ± 0.035. Under TGACGGAGAA stands 1.01 ± 0.015. On to TGACGGCCTG, for which the switch fluorescence ratio was determined as 1.06 ± 0.022. With TGACGGGAAT the figure was 1.01 ± 0.013; with TGACGGGCGG, 1 ± 0.015; with TGACGGTGTC, 1.02 ± 0.0035.

Regarding TGACGTCAGT, the switch fluorescence ratio worked out at 0.972 ± 0.014. With TGACTATGAT, the switch fluorescence ratio turned out to be 0.998 ± 0.015. In the case of TGACTATTAA, the switch fluorescence ratio worked out at 0.9845 ± 0.0022. Turning to TGACTCACGG, the switch fluorescence ratio is 1.08 ± 0.029.

For the sequence TGACTTCGCT, the switch fluorescence ratio worked out at 1.2 ± 0.18. For the sequence TGACTTGGAC, the switch fluorescence ratio stood at 1.02 ± 0.013.

On to TGACTTTGTG, for which the switch fluorescence ratio came to 1.02 ± 0.044.

As to TGACTTTTTC, the switch fluorescence ratio worked out at 1.03 ± 0.016. Take TGAGAAAAAT: the switch fluorescence ratio stood at 0.973 ± 0.018.

Consider TGAGAACCCG, for which the switch fluorescence ratio came out at 1.02 ± 0.051.

Regarding TGAGAGAGGG, the switch fluorescence ratio amounted to 0.983 ± 0.012. Take TGAGAGATTG: the switch fluorescence ratio is 0.9773 ± 0.007. As to TGAGAGTAT, the switch fluorescence ratio is 1.01 ± 0.034.

Turning to TGAGAGTGGG, the switch fluorescence ratio was found to be 1.01 ± 0.021. Under TGAGATATTG stands 0.997 ± 0.018. For the sequence TGAGATCGCG, the switch fluorescence ratio stood at 1.004 ± 0.0018.

On to TGAGATGGTG, for which the switch fluorescence ratio is 0.9739 ± 0.0014.

For the sequence TGAGATTTAG, the switch fluorescence ratio was 0.988 ± 0.026. With TGAGATTTTT the figure was 0.975 ± 0.048. Regarding TGAGCAGCGG, the switch fluorescence ratio worked out at 1.01 ± 0.044. With TGAGCCTTAG the figure was 1.09 ± 0.05; with TGAGCGGGTG, 1.01 ± 0.01; with TGAGCGTG, 0.9816 ± 0.0078. Consider TGAGCTAGGG, for which the switch fluorescence ratio worked out at 1.005 ± 0.0026. Regarding TGAGCTAGGT, the switch fluorescence ratio was 1 ± 0.033. With TGAGCTGGCT the figure was 0.989 ± 0.021. As for TGAGGAGGTT, the switch fluorescence ratio is 0.981 ± 0.072. Under TGAGGCCGAA stands 1.015 ± 0.0088; under TGAGGCTAGG, 1.02 ± 0.017. In the case of TGAGGGAGGG, the switch fluorescence ratio came to 1.01 ± 0.017. Under TGAGGGATGG stands 1.01 ± 0.017. Under TGAGGGGATC stands 1.02 ± 0.015. TGAGGGGGAT: the switch fluorescence ratio was 1 ± 0.051.

For the sequence TGAGGGGGGT, the switch fluorescence ratio worked out at 0.976 ± 0.025. With TGAGGGGTAA, the switch fluorescence ratio came to 0.993 ± 0.042. For the sequence TGAGGGGTCA, the switch fluorescence ratio is 1.002 ± 0.0076.

TGAGGGGTTG: the switch fluorescence ratio is 1 ± 0.036. As to TGAGGGTTGG, the switch fluorescence ratio amounted to 1.01 ± 0.027. In the case of TGAGGGTTGT, the switch fluorescence ratio was 1.01 ± 0.046.

TGAGGTAACG: the switch fluorescence ratio came to 0.992 ± 0.029. For the sequence TGAGGTAGGA, the switch fluorescence ratio was found to be 0.9781 ± 0.0014. With TGAGGTCACG the figure was 0.982 ± 0.036; with TGAGGTCGCG, 0.9759 ± 0.0035; with TGAGGTGTAT, 0.98719 ± 0.00023. With TGAGGTTGTC the figure was 0.981 ± 0.09; with TGAGGTTTGA, 0.986 ± 0.02; with TGAGTACAGC, 1.03 ± 0.092.

With TGAGTACGGG, the switch fluorescence ratio is 0.9844 ± 0.0025.

Regarding TGAGTATAGT, the switch fluorescence ratio amounted to 1.01 ± 0.035. Under TGAGTCCTCG stands 0.995 ± 0.064.

On to TGAGTCTGTT, for which the switch fluorescence ratio was found to be 1.01 ± 0.028. Under TGAGTGACG stands 1.0136 ± 0.00054; under TGAGTGATTT, 1.02 ± 0.031; under TGAGTGGGGC, 1.03 ± 0.025. With TGAGTTATTT the figure was 1.01 ± 0.012; with TGAGTTCAAC, 1.04 ± 0.086; with TGAGTTCGGC, 1.03 ± 0.015. Under TGAGTTGGGT stands 0.986 ± 0.019. As for TGAGTTTGTT, the switch fluorescence ratio worked out at 1.021 ± 0.0092. Regarding TGAGTTTTGG, the switch fluorescence ratio came to 1.02 ± 0.015. Under TGAGTTTTTG stands 0.998 ± 0.022.

Source of the values: the supplement of paper PMC10126150.
